Test results reported in US20250163183.

Molecular target: LP3, LP9, LP11, and LP18

B1: human activated protein C (APC) (protein)
chain: ANSFLEELRHSSLERECIEEICDFEEAKEIFQNVDDTLAFWSKHVDGDQCLVLPLEHPCASLCCGHGTCIDGIGSFSCDCRSGWEGRFCQREVSFLNCSLDNGGCTHYCLEEVGWRRCSCAPGYKLGDDLLQCHPAVKFPCGRPWKRMEKKRSHLLIDGKMTRRGDSPWQVVLLDSKKKLACGAVLIHPSWVLTAAHCMDESKKLLVRLGEYDLRRWEKWELDLDIKEVFVHPNYSKSTTDNDIALLHLAQPATLSQTIVPICLPDSGLAERELNQAGQETLVTGWGYHSSREKEAKRNRTFVLNFIKIPVVPHNECSEVMSNMVSENMLCAGILGDRQDACEGDSGGPMVASFHGTWFLVGLVSWGEGCGLLHNYGVYTKVSRYLDWIHGHIRDKEAPQKSWAP
- APC-mediated SEAP-PAR1 cleavage at 0.7-6 nM nanobody: reduced PAR1 cleavage down to 73-82% of controls
